B1: Chromobox protein homolog 8 (Homo sapiens), Q9HC52 (parent)
chain: MELSAVGERVFAAEALLKRRIRKGRMEYLVKWKGWSQKYSTWEPEENILDARLLAAFEEREREMELYGPKKRGPKPKTFLLKAQAKAKAKTYEFRSDSARGIRIPYPGRSPQDLASTSRAREGLRNMGLSPPASSTSTSSTCRAEAPRDRDRDRDRDRERDRERERERERERERERERERGTSRVDDKPSSPGDSSKKRGPKPRKELPDPSQRPLGEPSAGLGEYLKGRKLDDTPSGAGKFPAGHSVIQLARRQDSDLVQCGVTSPSSAEATGKLAVDTFPARVIKHRAAFLEAKGQGALDPNGTRVRHGSGPPSSGGGLYRDMGAQGGRPSLIARIPVARILGDPEEESWSPSLTNLEKVVVTDVTSNFLTVTIKESNTDQGFFKEKR

Variants of: B1
Conditions: with af9_mouse Mllt3, A2AM29
af9_mouse Mllt3, A2AM29, sequence (A2AM29 whole entry): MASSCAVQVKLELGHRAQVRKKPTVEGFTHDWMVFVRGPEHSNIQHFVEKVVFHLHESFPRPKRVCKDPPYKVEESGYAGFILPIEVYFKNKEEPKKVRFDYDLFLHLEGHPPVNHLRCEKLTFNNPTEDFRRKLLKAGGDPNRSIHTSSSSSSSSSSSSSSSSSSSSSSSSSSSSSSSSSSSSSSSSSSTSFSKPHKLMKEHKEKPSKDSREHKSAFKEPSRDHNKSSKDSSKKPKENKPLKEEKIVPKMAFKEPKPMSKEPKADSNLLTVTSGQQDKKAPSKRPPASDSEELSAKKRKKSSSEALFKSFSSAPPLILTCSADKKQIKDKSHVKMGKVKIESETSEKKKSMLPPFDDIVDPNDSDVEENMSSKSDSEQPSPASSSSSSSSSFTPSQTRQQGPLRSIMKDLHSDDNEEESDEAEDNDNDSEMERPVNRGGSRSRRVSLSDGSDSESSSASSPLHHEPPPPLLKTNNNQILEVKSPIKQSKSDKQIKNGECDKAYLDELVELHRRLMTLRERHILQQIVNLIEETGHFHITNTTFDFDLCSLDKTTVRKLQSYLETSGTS

Variant | effect of a mutation on the interaction
MELSAVGERVFAAEALLKRRIRKGRMEYLVKWKGWSQKYSTWEPEENILDARLLAAFEEREREMELYGPKKRGPKPKTFLLKAQAKAKAKTYEFRSDSARGIRIPYPGRSPQDLASTSRAREGLRNMGLSPPASSTSTSSTCRAEAPRDRDRDRDRDRERDRERERERERERERERERERGTSRVDDKPSSPGDSSKKRGPKPRKELPDPSQRPLGEPSAGLGEYLKGRKLDDTPSGAGKFPAGHSVIQLARRQDSDLVQCGVTSPSSAEATGKLAVDTFPARVIKHRAAFLEAKGQGALDPNGTRVRHGSGPPSSGGGLYRDMGAQGGRPSLIVRIPVARILGDPEEESWSPSLTNLEKVVVTDVTSNFLTVTIKESNTDQGFFKEKR [A335V] | increasing interaction strength

From IntAct's records for PubMed 23260655
